B1: BBSome complex member BBS2 (Homo sapiens), Q9BXC9 (parent)
chain: MLLPVFTLKLRHKISPRMVAIGRYDGTHPCLAAATQTGKVFIHNPHTRNQHVSASRVFQSPLESDVSLLSINQAVSCLTAGVLNPELGYDALLVGTQTNLLAYDVYNNSDLFYREVADGANAIVLGTLGDISSPLAIIGGNCALQGFNHEGSDLFWTVTGDNVNSLALCDFDGDGKKELLVGSEDFDIRVFKEDEIVAEMTETEIVTSLCPMYGSRFGYALSNGTVGVYDKTSRYWRIKSKNHAMSIHAFDLNSDGVNELITGWSNGKVDARSDRTGEVIFKDNFSSAIAGVVEGDYRMDGHIQLICCSVDGEIRGYLPGTAEMRGNLMDTSAEQDLIRELSQKKQNLLLELRNYEENAKAELASPLNEADGHRGIIPANTRLHTTLSVSLGNETQTAHTELRISTSNDTIIRAVLIFAEGIFTGESHVVHPSIHNLSSSICIPIVPPKDVPVDLHLKAFVGYRSSTQFHVFESTRQLPRFSMYALTSLDPASEPISYVNFTIAERAQRVVVWLGQNFLLPEDTHIQNAPFQVCFTSLRNGGHLHIKIKLSGEITINTDDIDLAGDIIQSMASFFAIEDLQVEADFPVYFEELRKVLVKVDEYHSVHQKLSADMADHSNLIRSLLVGAEDARLMRDMKTMKSRYMELYDLNRDLLNGYKIRCNNHTELLGNLKAVNQAIQRAGRLRVGKPKNQVITACRDAIRSNNINTLFKIMRVGTASS
partner: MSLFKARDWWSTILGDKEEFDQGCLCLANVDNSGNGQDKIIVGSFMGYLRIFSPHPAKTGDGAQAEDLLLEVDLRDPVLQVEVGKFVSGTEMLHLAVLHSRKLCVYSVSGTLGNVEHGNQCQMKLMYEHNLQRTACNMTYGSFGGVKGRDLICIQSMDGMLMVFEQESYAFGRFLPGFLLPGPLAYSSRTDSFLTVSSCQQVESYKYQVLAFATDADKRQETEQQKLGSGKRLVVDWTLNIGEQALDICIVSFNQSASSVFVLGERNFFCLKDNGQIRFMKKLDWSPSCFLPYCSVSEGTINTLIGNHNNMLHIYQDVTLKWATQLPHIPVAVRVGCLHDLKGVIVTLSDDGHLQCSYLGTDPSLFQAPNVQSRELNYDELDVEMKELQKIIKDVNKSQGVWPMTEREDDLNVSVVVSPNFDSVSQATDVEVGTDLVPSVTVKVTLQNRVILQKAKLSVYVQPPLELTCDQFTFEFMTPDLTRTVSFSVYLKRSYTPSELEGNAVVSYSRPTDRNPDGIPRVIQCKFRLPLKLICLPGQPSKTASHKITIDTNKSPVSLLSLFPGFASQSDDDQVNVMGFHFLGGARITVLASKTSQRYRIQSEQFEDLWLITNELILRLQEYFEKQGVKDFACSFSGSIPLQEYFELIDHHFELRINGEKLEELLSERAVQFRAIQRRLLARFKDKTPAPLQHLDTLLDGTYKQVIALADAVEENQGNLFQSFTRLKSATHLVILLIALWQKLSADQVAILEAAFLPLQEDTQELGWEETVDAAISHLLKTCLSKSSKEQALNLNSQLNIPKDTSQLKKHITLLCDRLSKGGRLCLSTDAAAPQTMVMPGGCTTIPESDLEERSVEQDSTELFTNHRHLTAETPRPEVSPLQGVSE

Variants of: B1
Details: with pthb1_human BBS9, Q3SYG4

Row | Variant | effect of a mutation on the interaction
1 | T467A | with no effect
2 | T467E | with no effect
3 | T467K | with no effect
4 | V453E | with no effect
5 | V453A | with no effect
6 | V453K | disrupting interaction strength
7 | T475K | with no effect
8 | T475E | with no effect
9 | T475A | with no effect
10 | H456K | with no effect
11 | H456A | with no effect
12 | H456E | with no effect
13 | Q477K | with no effect
14 | Q477E | with no effect
15 | Q477A | with no effect
16 | D454A | with no effect
17 | D454K | with no effect
18 | D454E | with no effect
19 | K449R | disrupting interaction strength
20 | G462D | disrupting interaction strength
21 | G462A | with no effect
22 | G462S | disrupting interaction strength
23 | G462E | with no effect
24 | G462K | with no effect

Row | Variant | effect of a mutation on the interaction
25 | V471E | with no effect
26 | V471A | disrupting interaction strength
27 | V471K | with no effect
28 | L457C | disrupting interaction strength
29 | L457A | with no effect
30 | L457E | disrupting interaction strength
31 | L457K | disrupting interaction strength
32 | L478E | disrupting interaction strength
33 | L478P | disrupting interaction strength
34 | L478A | disrupting interaction strength
35 | L478K | disrupting interaction strength
36 | R476E | with no effect
37 | R476K | with no effect
38 | R476A | with no effect
39 | A459T | disrupting interaction strength
40 | A459E | disrupting interaction strength
41 | A459K | disrupting interaction strength
42 | K458E | with no effect
43 | K458A | with no effect
44 | F469A | with no effect
45 | F469L | disrupting interaction strength
46 | F469E | disrupting interaction strength
47 | F469K | disrupting interaction strength
48 | D450L | disrupting interaction strength

Row | Variant | effect of a mutation on the interaction
49 | D450E | with no effect
50 | D450K | with no effect
51 | D450A | with no effect
52 | V461A | disrupting interaction strength
53 | V461E | disrupting interaction strength
54 | V461K | disrupting interaction strength
55 | V461M | disrupting interaction strength
56 | P452K | with no effect
57 | P452A | with no effect
58 | P452E | with no effect
59 | Y463A | with no effect
60 | Y463K | with no effect
61 | Y463E | with no effect
62 | S474K | disrupting interaction strength
63 | S474E | with no effect
64 | S474A | disrupting interaction strength
65 | V451E | with no effect
66 | V451A | with no effect
67 | V451K | with no effect
68 | F472A | with no effect
69 | F472K | with no effect
70 | F472E | with no effect
71 | E473K | with no effect
72 | E473A | with no effect

Row | Variant | effect of a mutation on the interaction
73 | L455P | disrupting interaction strength
74 | L455K | disrupting interaction strength
75 | L455A | with no effect
76 | S466K | with no effect
77 | S466A | with no effect
78 | S466E | disrupting interaction strength
79 | Q468K | with no effect
80 | Q468E | with no effect
81 | Q468A | with no effect
82 | H470K | with no effect
83 | H470A | with no effect
84 | H470E | with no effect
85 | S465E | with no effect
86 | S465K | with no effect
87 | S465A | with no effect
88 | R464A | with no effect
89 | R464E | with no effect
90 | R464K | with no effect
91 | F460A | disrupting interaction strength
92 | F460E | disrupting interaction strength
93 | F460K | with no effect

Further lines, results first:

Row | effect of a mutation on the interaction | Variant
94 | with no effect | P491K
95 | with no effect | P491A
96 | with no effect | P491E
97 | with no effect | D490K
98 | with no effect | D490E
99 | with no effect | D490A
100 | disrupting interaction strength | A485S
101 | with no effect | A485K
102 | with no effect | A485E
103 | with no effect | E494A
104 | with no effect | E494K
105 | with no effect | S497K
106 | disrupting interaction strength | S497A
107 | with no effect | S497E
108 | with no effect | P495A
109 | with no effect | P495K
110 | with no effect | P495E
111 | with no effect | A492E
112 | with no effect | A492K
113 | with no effect | V499K
114 | with no effect | V499A
115 | with no effect | V499E
116 | with no effect | L486E

Row | effect of a mutation on the interaction | Variant
117 | with no effect | L486K
118 | with no effect | L486A
119 | with no effect | I496A
120 | with no effect | I496E
121 | with no effect | I496K
122 | with no effect | R480E
123 | with no effect | R480K
124 | with no effect | R480A
125 | disrupting interaction strength | M483E
126 | disrupting interaction strength | M483K
127 | with no effect | M483A
128 | disrupting interaction strength | M483I
129 | with no effect | N500E
130 | with no effect | N500A
131 | with no effect | P479K
132 | disrupting interaction strength | P479L
133 | disrupting interaction strength | P479E
134 | with no effect | P479A
135 | with no effect | S493E
136 | with no effect | S493K
137 | with no effect | S493A
138 | disrupting interaction strength | S482E
139 | disrupting interaction strength | S482K

Row | effect of a mutation on the interaction | Variant
140 | with no effect | S482A
141 | disrupting interaction strength | S482P
142 | disrupting interaction strength | Y484E
143 | disrupting interaction strength | Y484A
144 | disrupting interaction strength | Y484K
145 | with no effect | L489K
146 | with no effect | L489A
147 | with no effect | L489E
148 | disrupting interaction strength | Y498H
149 | with no effect | Y498A
150 | with no effect | Y498E
151 | with no effect | Y498K
152 | disrupting interaction strength | T487M
153 | with no effect | T487A
154 | with no effect | T487E
155 | with no effect | T487K
156 | disrupting interaction strength | S488R
157 | with no effect | S488A
158 | with no effect | S488E
159 | with no effect | S488K
160 | disrupting interaction strength | F481E
161 | disrupting interaction strength | F481K
162 | disrupting interaction strength | F481A

Reference: IntAct's records for PubMed 29039417
